# Measured values as given in paper PMC3058911.
# What was measured:
# [1] = target: CdiI536-T18 (bacterial two-hybrid fusion) (E. coli UPEC 536); test: two-hybrid
# [2] = target: CdiI3937-2-T18 (bacterial two-hybrid fusion) (Dickeya dadantii 3937) (UniProt E0SDG7); test: two-hybrid
# Chain of UniProt E0SDG7 (E0SDG7 whole entry, the tested form may be a part): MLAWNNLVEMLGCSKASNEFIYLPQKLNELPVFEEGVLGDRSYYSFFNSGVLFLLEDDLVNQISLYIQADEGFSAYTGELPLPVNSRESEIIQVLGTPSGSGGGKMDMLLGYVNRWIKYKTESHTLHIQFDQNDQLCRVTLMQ
Substance,β-galactosidase activity [1] [units],β-galactosidase activity [2] [units]
T25-CdiA-CT536 (bacterial two-hybrid fusion) (domain or fragment),> 300,
T25-CdiA-CT3937-2 (bacterial two-hybrid fusion) (from UniProt E0SDG8 1-3326) (domain or fragment),,> 300
